Experiments:
HeLa Kyoto [1] = assay: solubility in G1/S (NP-40 vs SDS abundance) (log2 ratio); higher = more soluble; conditions: cell cycle stage: G1/S
HeLa Kyoto [2] = assay: melting temperature (median over replicates), in situ; higher = more thermally stable
HeLa Kyoto [3] = assay: solubility change mitosis vs G1/S (difference of NP-40 vs SDS log2 ratios) (log2 ratio difference); higher = more soluble in mitosis
HeLa Kyoto [4] = assay: thermal stability score vs G1/S (z-score of summed log2 fold changes over temperatures); higher = more thermally stable than in G1/S
[5] = cell cycle stage: early G1 (4.5 h after nocodazole release)
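For melting temperature (median over replicates), in situ in this document: HeLa Kyoto cells synchronized by double thymidine or nocodazole block, proteins quantified by TMT10plex mass spectrometry, three independent biological replicates.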
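For solubility change mitosis vs G1/S (difference of NP-40 vs SDS log2 ratios) in this document: synchronized HeLa Kyoto cells (double thymidine block for G1/S, nocodazole release for mitosis), protein amounts in NP-40 versus SDS lysates quantified by mass spectrometry, three biological replicates.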
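For solubility in G1/S (NP-40 vs SDS abundance) in this document: HeLa Kyoto cells arrested at G1/S by double thymidine block, proteins quantified by TMT10plex mass spectrometry in mild NP-40 versus SDS extracts, three biological replicates.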
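For thermal stability score vs G1/S (z-score of summed log2 fold changes over temperatures) in this document: synchronized HeLa Kyoto cells, proteins quantified by TMT10plex mass spectrometry, three biological replicates, mitosis taken 0.5 h after nocodazole release, G1/S directly after double thymidine block.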

| Sequence | solubility in G1/S (log2) (HeLa Kyoto [1]) | melting temperature (HeLa Kyoto [2]; cell cycle stage: G1/S) [°C] | melting temperature (HeLa Kyoto [2]; cell cycle stage: mitosis) [°C] | solubility change mitosis (log2) (HeLa Kyoto [3]) | thermal stability score (HeLa Kyoto [4]; [5]) | thermal stability score (HeLa Kyoto [4]; cell cycle stage: mitosis) |
| --- | --- | --- | --- | --- | --- | --- |
| MPEIVDTCSLASPASVCRTKHLHLRCSVDFTRRTLTGTAALTVQSQEDNLRSLVLDTKDLTIEKVVINGQEVKYALGERQSYKGSPMEISLPIALSKNQEIVIEISFETSPKSSALQWLTPEQTSGKEHPYLFSQCQAIHCRAILPCQDTPSVKLTYTAEVSVPKELVALMSAIRDGETPDPEDPSRKIYKFIQKVPIPCYLIALVVGALESRQIGPRTLVWSEKEQVEKSAYEFSETESMLKIAEDLGGPYVWGQYDLLVLPPSFPYGGMENPCLTFVTPTLLAGDKSLSNVIAHEISHSWTGNLVTNKTWDHFWLNEGHTVYLERHICGRLFGEKFRHFNALGGWGELQNSVKTFGETHPFTKLVVDLTDIDPDVAYSSVPYEKGFALLFYLEQLLGGPEIFLGFLKAYVEKFSYKSITTDDWKDFLYSYFKDKVDVLNQVDWNAWLYSPGLPPIKPNYDMTLTNACIALSQRWITAKEDDLNSFNATDLKDLSSHQLNEFLAQTLQRAPLPLGHIKRMQEVYNFNAINNSEIRFRWLRLCIQSKWEDAIPLALKMATEQGRMKFTRPLFKDLAAFDKSHDQAVRTYQEHKASMHPVTAMLVGKDLKVD [LTA4H] | 0.0608 | 53 | 53 | -0.173 | 1.7 | 0.372 |
| MPENVAPRSGATAGAAGGRGKGAYQDRDKPAQIRFSNISAAKAVADAIRTSLGPKGMDKMIQDGKGDVTITNDGATILKQMQVLHPAARMLVELSKAQDIEAGDGTTSVVIIAGSLLDSCTKLLQKGIHPTIISESFQKALEKGIEILTDMSRPVELSDRETLLNSATTSLNSKVVSQYSSLLSPMSVNAVMKVIDPATATSVDLRDIKIVKKLGGTIDDCELVEGLVLTQKVSNSGITRVEKAKIGLIQFCLSAPKTDMDNQIVVSDYAQMDRVLREERAYILNLVKQIKKTGCNVLLIQKSILRDALSDLALHFLNKMKIMVIKDIEREDIEFICKTIGTKPVAHIDQFTADMLGSAELAEEVNLNGSGKLLKITGCASPGKTVTIVVRGSNKLVIEEAERSIHDALCVIRCLVKKRALIAGGGAPEIELALRLTEYSRTLSGMESYCVRAFADAMEVIPSTLAENAGLNPISTVTELRNRHAQGEKTAGINVRKGGISNILEELVVQPLLVSVSALTLATETVRSILKIDDVVNTR [CCT4] | 0.192 | 53.6 | 53.1 | -0.141 | -1.23 | -2.24 |
| MPGETEEPRPPEQQDQEGGEAAKAAPEEPQQRPPEAVAAAPAGTTSSRVLRGGRDRGRAAAAAAAAAVSRRRKAEYPRRRRSSPSARPPDVPGQQPQAAKSPSPVQGKKSPRLLCIEKVTTDKDPKEEKEEEDDSALPQEVSIAASRPSRGWRSSRTSVSRHRDTENTRSSRSKTGSLQLICKSEPNTDQLDYDVGEEHQSPGGISSEEEEEEEEEMLISEEEIPFKDDPRDETYKPHLERETPKPRRKSGKVKEEKEKKEIKVEVEVEVKEEENEIREDEEPPRKRGRRRKDDKSPRLPKRRKKPPIQYVRCEMEGCGTVLAHPRYLQHHIKYQHLLKKKYVCPHPSCGRLFRLQKQLLRHAKHHTDQRDYICEYCARAFKSSHNLAVHRMIHTGEKPLQCEICGFTCRQKASLNWHMKKHDADSFYQFSCNICGKKFEKKDSVVAHKAKSHPEVLIAEALAANAGALITSTDILGTNPESLTQPSDGQGLPLLPEPLGNSTSGECLLLEAEGMSKSYCSGTERVSLMADGKIFVGSGSSGGTEGLVMNSDILGATTEVLIEDSDSAGP [ZFP91] | -0.401 | 51.9 | 53.2 | 0.0732 | 2.06 | 1.42 |
| MPGKLKVKIVAGRHLPVMDRASDLTDAFVEVKFGNTTFKTDVYLKSLNPQWNSEWFKFEVDDEDLQDEPLQITVLDHDTYSANDAIGKVYIDIDPLLYSEAATVISGWFPIYDTIHGIRGEINVVVKVDLFNDLNRFRQSSCGVKFFCTTSIPKCYRAVIIHGFVEELVVNEDPEYQWIDRIRTPRASNEARQRLISLMSGELQRKIGLKVLEMRGNAVVGYLQCFDLEGESGLVVRAIGTACTLDKLSSPAAFLPACNSPSKEMKEIPFNEDPNPNTHSSGPSTPLKNQTYSFSPSKSYSRQSSSSDTDLSLTPKTGMGSGSAGKEGGPFKALLRQQTQSALEQREFPFFTLTAFPPGFLVHVGGVVSARSVKLLDRIHNPDEPETRDAWWAEIRQEIKSHAKALGCHAVVGYSESTSICEEVCILSASGTAAVLNPRFLQDGTVEGCLEQRLEENLPTRCGFCHIPYDELNMPFPAHLTYCYNCRKQKVPDVLFTTIDLPTDATVIGKGCLIQARLCRLKKKAQAEANATAISNLLPFMEYEVHTQLMNKLKLKGMNALFGLRIQITVGENMLMGLASATGVYLAALPTPGGIQIAGKTPNDGSYEQHISHMQKKINDTIAKNKELYEINPPEISEEIIGSPIPEPRQRSRLLRSQSESSDEVTELDLSHGKKDAFVLEIDDTDAMEDVHSLLTDVPPPSGFYSCNTEIMPGINNWTSEIQMFTSVRVIRLSSLNLTNQALNKNFNDLCENLLKSLYFKLRSMIPCCLCHVNFTVSLPEDELIQVTVTAVAITFDKNQALQTTKTPVEKSLQRASTDNEELLQFPLELCSDSLPSHPFPPAKAMTVEKASPVGDGNFRNRSAPPCANSTVGVVKMTPLSFIPGAKITKYLGIINMFFIRETTSLREEGGVSGFLHAFIAEVFAMVRAHVAALGGNAVVSYIMKQCVFMENPNKNQAQCLINVSGDAVVFVRESDLEVVSSQQPTTNCQSSCTEGEVTT [C2CD5] | 0.000995 | 52.2 | 52.3 | -0.067 | 0.25 | -0.02 |
| MPGVIPSESNGLSRGSPSKKNRLSLKFFQKKETKRALDFTDSQENEEKASEYRASEIDQVVPAAQSSPINCEKRENLLPFVGLNNLGNTCYLNSILQVLYFCPGFKSGVKHLFNIISRKKEALKDEANQKDKGNCKEDSLASYELICSLQSLIISVEQLQASFLLNPEKYTDELATQPRRLLNTLRELNPMYEGYLQHDAQEVLQCILGNIQETCQLLKKEEVKNVAELPTKVEEIPHPKEEMNGINSIEMDSMRHSEDFKEKLPKGNGKRKSDTEFGNMKKKVKLSKEHQSLEENQRQTRSKRKATSDTLESPPKIIPKYISENESPRPSQKKSRVKINWLKSATKQPSILSKFCSLGKITTNQGVKGQSKENECDPEEDLGKCESDNTTNGCGLESPGNTVTPVNVNEVKPINKGEEQIGFELVEKLFQGQLVLRTRCLECESLTERREDFQDISVPVQEDELSKVEESSEISPEPKTEMKTLRWAISQFASVERIVGEDKYFCENCHHYTEAERSLLFDKMPEVITIHLKCFAASGLEFDCYGGGLSKINTPLLTPLKLSLEEWSTKPTNDSYGLFAVVMHSGITISSGHYTASVKVTDLNSLELDKGNFVVDQMCEIGKPEPLNEEEARGVVENYNDEEVSIRVGGNTQPSKVLNKKNVEAIGLLGGQKSKADYELYNKASNPDKVASTAFAENRNSETSDTTGTHESDRNKESSDQTGINISGFENKISYVVQSLKEYEGKWLLFDDSEVKVTEEKDFLNSLSPSTSPTSTPYLLFYKKL [USP1] | -0.118 | 48.8 | – | -0.0658 | 0.238 | 1.6 |
| MPHRKERPSGSSLHTHGSTGTAEGGNMSRLSLTRSPVSPLAAQGIPLPAQLTKSNAPVHIDVGGHMYTSSLATLTKYPDSRISRLFNGTEPIVLDSLKQHYFIDRDGEIFRYVLSFLRTSKLLLPDDFKDFSLLYEEARYYQLQPMVRELERWQQEQEQRRRSRACDCLVVRVTPDLGERIALSGEKALIEEVFPETGDVMCNSVNAGWNQDPTHVIRFPLNGYCRLNSVQVLERLFQRGFSVAASCGGGVDSSQFSEYVLCREERRPQPTPTAVRIKQEPLD [KCTD15] | 0.447 | 56 | 56.9 | -0.0635 | -2.02 | 0.00454 |
